# The DeepSol protein solubility set
# Assay: soluble on expression in E. coli; label from the status in PepcDB or PDB records
row,Sequence,soluble on expression in E. coli
1,AYPSFEAYSNYKVDRTDLETFLDKQKEVSLYYLLQNIAYPEGQFNNGVPGTVIASPSTSNPDYYYQWTRDSAITFLTVLSELEDNNFNTTLAKAVEYYINTSYNLQRTSNPSGSFDDENHKGLGEPKFNTDGSAYTGAWGRPQNDGPALRAYAISRYLNDVNSLNEGKLVLTDSGDINFSSTEDIYKNIIKPDLEYVIGYWDSTGFDLWEENQGRHFFTSLVQQKALAYAVDIAKSFDDGDFANTLSSTASTLESYLSGSDGGFVNTDVNHIVENPDLLQQNSRQGLDSATYIGPLLTHDIGESSSTPFDVDNEYVLQSYYLLLEDNKDRYSVNSAYSAGAAIGRYPEDVYNGDGSSEGNPWFLATAYAAQVPYKLAYDAKSASNDITINKINYDFFNKYIVDLSTINSAYQSSDSVTIKSGSDEFNTVADNLVTFGDSFLQVILDHINDDGSLNEQLNRYTGYSTGAYSLTWSSGALLEAIRLRNKVKALA,soluble
2,CEGGVDMQQSQVQLQCPLTPPRGLQVSIQGEAVAVRPGEDVLFVVRQEQGDVLTTKYQVDLGDGFKAMYVNLTLTGEPIRHRYESPGIYRVSVRAENTAGHDEAVLFVQV,soluble
3,CEVDALKGTNESLERQMREMEENFAVEAANYQDTIGRLQDEIQNMKEEMARHLREYQDLLNVKMALDIEIATYRKLLEGEESRI,soluble
4,CSDLPEIQNGWKTTSHTELVRGARITYQCDPGYDIVGSDTLTCQWDLSWSSDPPFCEKTEE,soluble
5,CTPKPKSAQPVAEEFFHNVAAQDFDAAAQLTDQDDSARELLSRSWEGLQAEGLDVSLNKVDAKDTVATAKYTLTWKLPKDRTLSYDTSMTLNRINDQWTIRWQPAAVHPKLAANQHLELRAINAERASVVSSDGAEVLVPGVQYRLIADTQHIIDKAATAQTIATHLRAARAADETVPELSASDIQQALETNRGSYSLAVVNERAGDSIKQALAGVSGIRLNKEAAMVNKDPNFAPDVIRRVSSLVNDQLAGANGWSVDAVTQDGVSMQTIERHAPQVAPAIRISLNHNVQVAAERAVNLRKDKQSMLVAIRPSTGEILAIAQSDLADKQGDLALNGQYPPGSTFKIVTASAGIQDQGLNADSIVPCPGTMNIYGRTVTNYNGFSLGNVPLEKAFARSCNTTFANISEQLNKGQLKEIGRDFGIGIDYDIPGLNTLTGSIPQGDTELARTEAGYGQGE,not soluble
6,CTRAVYIGPDHMVVTGRTMDWKEDIMSNIYVFPRGIQRAGYNKENAVKWTSKYGSVIATGYDIGTCDGMNEKGLVASLLFLPESVFDRPGDTRPVMGISIWTQYVLDNFATVHEAVEELKKESFRIDAPHMPNGSASTLHLAITDETGNTAVLEYLDGNLSIHEGKEFQVMTNSPRYDYQLAINDYWKEVGGLQMLPGTNRSSDRFVRASFYIHAIPQTPDAKIAVPSVLSVMRNVSVPFGITTPDKPHISSTRWRSVSDQKNKIYYFESVMTPNLFWLDLKKIDFSPKAGIKKLPLTNGKIY,not soluble
7,DDAYVERRVPQEMLGGHSQGDELPIHFSRSDAFERLPQPEPIRRRLVRVGSSPVHEERMVHQQIGDLCVGDTVAHARFGIGIIESLEGEGDNAKAEVSFQQVGRKRLLLRFAKLSKVEKDSI,not soluble
8,DDHSRALGRTTVNSNLGQGQVSGAESGAKTAEPAWIDFMQVALEGKPEQGKNIPDDIVRVRIDRNSGLLTHKVDSTSMFEYFEKGTEPTEYVGNSLEDSIYSSGSGGTTEELF,not soluble
9,DDLPYRFGLGKADITGEAAEVGMMGYSSLEQKTAGIHMRQWARAFVIEEAASGRRLVYVNTDLGMIFQAVHLKVLARLKAKYPGVYDENNVMLAATHTHSGPGGFSHYAMYNLSVLGFQEKTFNAIVDGIVRSIERAQARLQPGRLFYGSGELRNASRNRSLLSHLKNPDIAGYEDGIDPQMSVLSFVDANGELAGAISWFPVHSTSMTNANHLISPDNKGYASYHWEHDVSRKSGFVAAFAQTNAGNLSPNLNLKPGSGPFDNEFDNTREIGLRQFAKAYEIAGQAQEEVLGELDSRFRFVDFTRLPIRPEFTDGQPRQLCTAAIGTSLAAGSTEDGPGPLGLEEGNNPFLSALGGLLTGVPPQELVQCQAEKTILADTGNKKPYPWTPTVLPIQMFRIGQLELLGAPAEFTVMAGVRIRRAVQAASEAAGIRHVVFNGYANAYASYVTTREEYAAQEYEGGSTLYGPWTQAAYQQLFVDMAVALRERLPVETSAIAPDLSCCQMNFQTGVVADDPYIGKSFGDVLQQPRESYRIGDKVTVAFVTGHPKNDLRTEKTFLEVVNIGKDGKQTPVTVATDNDWDTQYRWERVGISASKATISWSIPPGTEPGHYYIRHYGNAKNFWTQKISEIGGSTRSFEVLGTTP,soluble
10,DERLELMESVDVGQTPSNVVYEENKLELLHYDAEAAGIEVPDEEKEDVPILIVYALINRPYILDLQEERSVVRRLLEAGHDVYLIDWNEPSRLDQHLTLDDYVNRYMDNCVDVVRDRSGQDAINILGYCMGGTMSVMYTALHKEKVNTLGLMAAGLCFDHTGGVLEEWGSEEYYSPQDVVDTFGNVPADMLDIGFALMDPVENYVTKYIRFAENMENEGFVENFGRMEQWLGDGIDVAGEAYVQFLEDVYQDNKLYKNELELDGKHVDLDNIDMPVLQLMGEYDHLIPPEASKPFNDVIASDDTRTIEFSTGHIGLSVSSSTHADLWPEVAEWYSER,not soluble
11,DGKRVWLSDDELTRFIEQAETPHQRLAFLLAGRVGLRRSEIIEVCPQDLVDGPTGDHIRVWESYAKRDKYREPPVPQEVVTIAETLAYQQDDDEPLLDVAGSTVYRWVRRAADELEEETGDRGWQYLDVHDLRRTWGTYLLEQGVIPSVVMSFGGWEDWDTFRKHYLGEFS,soluble
12,DGLEGMDDPDATSKKVVPLGVEIYEINGPFFFGVADRLKGVLDVIEETPKVFILRMRRVPVIDATGMHALWEFQESCEKRGTILLLSGVSDRLYGALNRFGFIEALGEERVFDHIDKALAYAKLLVETAEER,not soluble
13,DGNEIIGDPLRKAAKLIDKGYIVAIKGIGGIHLACDATREDVVAELRKRIFRPQKPFAIMAKDLETVRTFAYISPEEEEELTSYRRPIVALKKKEPFPLPENLAPGLHTIGVMLPYAGTHYILFHWSKTPVYVMTSANFPGMPMIKDNEEAFEKLRDVADYLLLHNRRIPNRADDSVVRFVDGRRAV,not soluble
14,DHYNCVSSGGQCLYSACPIFTRIQGTCYRGRARCCR,soluble
15,DIHRQAYAAMLHSSQSSLGTALKFFHAQSVIDNAYDQEHVHYIDRQVKTRKGMPEASADSIRALLEIDLPARGYSKIDVPCKGSDFCIIGQQHPNSAHFVAIPDYQFLDKSGFDRVVYIWPQGYTLAEEACYFYYVNQASTDSIVRGHVTQGC,not soluble
16,DIKMTQSPSSMYASLGERVTITCKASQDINSYLNWFQQKPGKSPKTLIYRTNRLVDGVPSRFSGSGSGQDYSLTISSLEYEDMGIYYCLQYDEFPYTFGSGTKLEIKRTVAAPSVFIFPPSDEQLKSGTASVVCLLNNFYPREAKVQWKVDNALQSGNSQESVTEQDSKDSTYSLSSTLTLSKADYEKHKVYACEVTHQGLSSPVTKSFNR,soluble
17,DKCKKVYENYPVSKCQLANQCNYDCKLDKHARSGECFYDEKRNLQCICDYCEY,soluble
18,DKELFFINVYDITASKKAERELIESEEKFKQVVELSVDGIIIGTDSGKIVDCNGAACRIFGYDKEEILKLQVIDLFPGDLNIIAHDITSCNKAAGEKTVERINQKKDGTSFPAEVAARRVKLGN,not soluble
19,DKPVLKDSMRLFEQLGRVKSRSMFGGFGIFVDETMFALVVNDTLHIRADDATIEKYKQQGYEPYVYKKRGFPVVTKYYALPEDCWSHPDSILNEVRAALEVAKAERETQAQAK,not soluble
20,DKREYFVYLPPTYGKGDNHYSVIYMQDGDIVIKILNELMDLIENKSKKDVYDESIIVGVKPIVRNDDYTPWEAEAISKGSSEFGGRGDIYLNFLIKKLKPYIDNKYRTKKEKN,not soluble
21,DNRLKEENPDSTLRDTEYIDVGESPDGGKYRGVILFELGQLNKTNKIEKATLSLFWYYPEESRKEDTILEVYRPEKWCEEHISWGAREINTPWKNPGGDWYDKNGVSQGSTPYSTITFKSSSLPDNRYYELDVTELVREYISGKYENTGFLIKSRAEDSDYIAFYSSEWQNKNQMPRLSIEYKNE,not soluble
22,DRKAVLNAAEQHFSGWKELYLCLVDRDTQGGLVVETGGPLTFSEAERAAADWAWQHDQPAGSGTGTLPSGRWWWWPITAEEGPLALLGVCAREGQSFTDQHRRLLAALTQPLAQALARAQLAQELEAARLHGETEQLRSALLASVSHDLRTP,not soluble
23,DSTITGASEKAEDAFKASYPAVYRYLEGYKDLLTKRNQAETGIRYEWYALQRWGANYWEDFSKPKIMWKRIGSILRFCYNENGALGLDSTCFAAGKG,not soluble
24,DSYYNGHQDGDAIAYLILANKLIHELCPDAITIAEEVSGMPGLALPLADGGYGFDYRLAMNIPDFWIKLIKEHRDEDWNPGDIWYQLTNRRQEEKTISYAESHDQALVGDKTIIFRLIDADMYWYMNKQSCVHSVDRGIALLKMIRLFTATTMNGGYLNFMGNEFGHPEWIDFPREGNGWSYKYARRQWSLADSPFLRYAGLHLFDQDMIAMIRSVESFHKLPLREYWLKREEQVICYGRGDFFFVFNFHPERSYSDYPIPLPAGKYSVAMSTDARKYEGFGRVDEWVEHFTLPDGSKDRFTHEQYLNLYLPARSALVLKLAE,not soluble
25,DVQLVESGGGSVQAGGSLRLSCAASGSTDSIEYMTWFRQAPGKAREGVAALYTHTGNTYYTDSVKGRFTISQDKAKNMAYLRMDSVKSEDTAIYTCGATRKYVPVRFALDQSSYDYWGQGTQVTVSSRGRHHHHHH,soluble
26,DWVIPPISSPENEKGPFPKNLVQIKSNKDKEGKVFYSITGQGADTPPVGVFIIERETGWLKVTEPLDRERIATYTLFSHAVSSNGNAVEDPMEILITVTDQNDNKPEFTQEVFKGSVMEGALPGTSVMEVTATDADDDVNTYNAAIAYTILSQDPELPDKNMFTINRNTGVISVVTTGLDRESFPTYTLVVQAADLQGEGLSTTATAVITVTD,soluble
27,DYNASDMKVVSLRTKDNLHLKSWYKPASKHRPTILYLHGNAGHIGYRMPLVREFIDAGLGVFLLEYRGYGGNPGKPGEKGLYEDGETAIEFLIQHGVPSKRVILYGESIGTGVATHLATKYPVCAVILQSPFTSLTRLAQYHYPLNFLKPWDQYNSLARMKKINAPILVLHGKLDQIVPYQEGLNVFNEANEPKKMVSFDDKEHNDLWSADNFSREIIQFALNQCS,not soluble
28,DYYFDSYDHYGIHEEMLQDTVRTLSYRNAIIQNKDLFKDKIVLDVGCGTGILSMFAAKHGAKHVIGVDMSSIIEMAKELVELNGFSDKITLLRGKLEDVHLPFPKVDIIISEWMGYFLLYESMMDTVLYARDHYLVEGGLIFPDKCSIHLAGLEDSQYKDEKLNYWQDVYGFDYSPFVPLVLHEPIVDTVERNNVNTTSDKLIEFDLNTVKISDLAFKSNFKLTAKRQDMINGIVTWFDIVFPAPKGKRPVEFSTGPHAPYTHWKQTIFYFPDDLDAETGDTIEGELVCSPNEKNNRDLNIKISYKFESNGIDGNSRSRKNEGSYLMH,soluble
29,EAGAMDERTFGKSIEVYTRQICEELLTTAAGNTDAHYKTYRCPLCGNDSVRVFPKIVKCVTDGCGFKVFRELCGTLLSKEYIHALMTDGCTPLLCRLTGKSGKTFNARLKLDKDGGTSFVFDSKPRKPQT,not soluble
30,EAQTRVKLNFLDQIAKYWELQGSTLKIPHVERKILDLFQLNKLVAEEGGFAVVCKDRKWTKIATKMGFAPGKAVGSHIRGHYERILNPYNLFLSGDSLRCLQKPNLTSDTKDKEY,soluble
